B1: murine monoclonal anti-ferritin antibody AMB8LK (antibody, V domains shown)
VH: QVQLKESGPGLVAPSQSLSITCTVSGFSLSRYSVHWVRQPPGKGLEWLGTIWGGGSTDYNSVLKSRLSISKDNSKSQVLLKVNSLQTDDTAIYYCASGPYYYTMDYWGQGTSVTVSS
VL: QIVLTQSPAILSASLGEEITLTCSASSSVTFMHWYQQKSGTSPKLLIYTTSNLASGVPSRFSGSGSGTFYSLTISSVEAEDAADYYCHQWSSYPTFGSGTKLEIKR
notes: also called unconjugated AMB8LK; native antibody
B2: Bz-DOTA-AMB8LK (antibody, V domains shown)
VH: QVQLKESGPGLVAPSQSLSITCTVSGFSLSRYSVHWVRQPPGKGLEWLGTIWGGGSTDYNSVLKSRLSISKDNSKSQVLLKVNSLQTDDTAIYYCASGPYYYTMDYWGQGTSVTVSS
VL: QIVLTQSPAILSASLGEEITLTCSASSSVTFMHWYQQKSGTSPKLLIYTTSNLASGVPSRFSGSGSGTFYSLTISSVEAEDAADYYCHQWSSYPTFGSGTKLEIKR
modifications: about 3.2 Bz-DOTA chelates per antibody (pSCN-Bz-DOTA conjugation; sites not stated); 111In or 90Y in the radioimmunoassays
notes: also called DOTA-conjugate; 111In-DOTA-AMB8LK
B3: Bz-DTPA-AMB8LK (antibody, V domains shown)
VH: QVQLKESGPGLVAPSQSLSITCTVSGFSLSRYSVHWVRQPPGKGLEWLGTIWGGGSTDYNSVLKSRLSISKDNSKSQVLLKVNSLQTDDTAIYYCASGPYYYTMDYWGQGTSVTVSS
VL: QIVLTQSPAILSASLGEEITLTCSASSSVTFMHWYQQKSGTSPKLLIYTTSNLASGVPSRFSGSGSGTFYSLTISSVEAEDAADYYCHQWSSYPTFGSGTKLEIKR
modifications: about 3 Bz-DTPA chelates per antibody (pSCN-Bz-DTPA conjugation; sites not stated); 111In or 90Y in the radioimmunoassays
notes: also called DTPA conjugate; 111In-DTPA-AMB8LK
B4: Bz-CHX-A″-DTPA-AMB8LK (antibody, V domains shown)
VH: QVQLKESGPGLVAPSQSLSITCTVSGFSLSRYSVHWVRQPPGKGLEWLGTIWGGGSTDYNSVLKSRLSISKDNSKSQVLLKVNSLQTDDTAIYYCASGPYYYTMDYWGQGTSVTVSS
VL: QIVLTQSPAILSASLGEEITLTCSASSSVTFMHWYQQKSGTSPKLLIYTTSNLASGVPSRFSGSGSGTFYSLTISSVEAEDAADYYCHQWSSYPTFGSGTKLEIKR
modifications: about 3 Bz-CHX-A″-DTPA chelates per antibody (pSCN-Bz-CHX-A″-DTPA conjugation; sites not stated); 111In or 90Y in the radioimmunoassays
notes: also called CHX-DTPA-AMB8LK; CHX-DTPA

What was measured:
[1] = molecular target: human ferritin (human, UniProt P02794 2-183; P02792 2-175, limits assumed); assay: method not stated
Chain of human ferritin (P02794 2-183 limits assumed, chain 1 of 2): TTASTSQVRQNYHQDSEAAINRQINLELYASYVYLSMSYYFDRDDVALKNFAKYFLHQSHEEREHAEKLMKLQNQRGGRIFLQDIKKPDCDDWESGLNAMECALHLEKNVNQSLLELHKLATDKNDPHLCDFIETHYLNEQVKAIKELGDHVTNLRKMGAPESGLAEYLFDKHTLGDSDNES
Chain of human ferritin (P02792 2-175 limits assumed, chain 2 of 2): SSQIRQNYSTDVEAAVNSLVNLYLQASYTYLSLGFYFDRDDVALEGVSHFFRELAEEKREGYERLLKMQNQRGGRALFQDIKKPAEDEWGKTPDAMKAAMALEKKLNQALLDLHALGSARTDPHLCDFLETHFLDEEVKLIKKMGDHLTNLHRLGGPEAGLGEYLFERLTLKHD

[2] = molecular target: T1, ferritin in fixed and permeabilized CAPAN-1 cells (human, UniProt P02794 1-183; P02792 2-175); assay: Lindmo assay on fixed and permeabilized CAPAN-1 cells, 111In-labelled conjugate
T1 construct: whole, on cells; Endogenous ferritin, over-expressed by CAPAN-1 cells; The cells were fixed and permeabilized, so the ferritin reached is inside the cells; also called cells expressing ferritin
T1 sequence (P02794 whole entry, chain 1 of 2): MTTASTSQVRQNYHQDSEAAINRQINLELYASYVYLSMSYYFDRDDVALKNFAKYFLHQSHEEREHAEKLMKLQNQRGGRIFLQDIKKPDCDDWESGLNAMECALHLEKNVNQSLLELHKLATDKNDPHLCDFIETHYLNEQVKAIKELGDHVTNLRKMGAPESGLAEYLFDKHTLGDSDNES
T1 sequence (P02792 2-175, chain 2 of 2): as the sequence (P02792 2-175 limits assumed, chain 2 of 2) above
Method: Immunoreactivity of the immunoconjugates was assessed on cells expressing ferritin using the method described by Lindmo et al Determination of the immunoreactive fraction of radiolabeled monoclonal antibodies by linear extrapolation to binding at infinite antigen excess. J Immunol Methods 1984; 72 (1):77-89.
The CAPAN-1 cells are a relevant model for human pancreatic cancer (Kyriazis et al Human pancreatic adenocarcinoma line Capan-1 in tissue culture and the nude mouse:morphologic, biologic, and biochemical characteristics. Am J Pathol 1982; 106(2):250-60.). This cell line was established from a liver metastasis of a human pancreatic ductal adenocarcinoma, is tumorigenic and metastatic in nude mice and over-expresses ferritin. […] CAPAN-1 cells were grown in RPMI, 10% foetal calf serum and 2 mM L-glutamine. Cells were harvested at 70-85% confluence using trypsin, washed and resuspended in PBS-0.5% BSA. They were then fixed and permeabilized using the Intrastain kit (rako) following the manufacturer's instructions. Cells were diluted in PBS-0.5% BSA at concentrations ranging from 1.25×10⁵ to 12×10⁶ cells/ml and 500 μl of these suspensions were incubated with a fixed amount of ¹¹¹In-labeled-Ab (250 μl, 50 ng/ml, approximately 100,000CPM) for 2 hours at room temperature under agitation. Suspensions were centrifuged at 5,000×rpm for 5 minutes, the cells were washed with PBS-BSA and the activity in the pellets was counted. Nonspecific binding was determined by co-incubation of the radiolabelled-antibody with a 1.000-fold excess of cold antibody. The total radioactive counts added to each tube were divided by the cell-bound counts after subtraction of the non-specifically bound counts. These values were plotted against the reciprocal of cell dilution. After linear regression analysis, the immunoreactive fraction was obtained from the reciprocal of the intercept on the y-axis.

[3] = molecular target: T2, human liver ferritin (Calbiochem) (human, UniProt P02794 2-183; P02792 2-175); assay: solid-phase radioimmunoassay, ferritin immobilised at 5 µg/ml on tubes, 90Y-labelled conjugate
T2 construct: Natural ferritin is a multimer of acidic (H) and basic (L) subunits; Adsorbed on plates or tubes in the assays; also called pure ferritin
T2 sequence (P02794 2-183 limits assumed, chain 1 of 2): as the sequence (P02794 2-183 limits assumed, chain 1 of 2) above
T2 sequence (P02792 2-175 limits assumed, chain 2 of 2): as the sequence (P02792 2-175 limits assumed, chain 2 of 2) above
Method: (§1) A solid-phase radioimmunoassay was performed using ¹¹¹In- and ⁹⁰y-labelled antibodies. Maxisorp tunes (Nunc) were incubated overnight at 4° C. with 1.5 to 10 μg/ml ferritin in PBS. After washing, they were blocked by PBS-0.5% BSA for 2 hours at room temperature. 6.25×10³, 12.5×10³ and 25×10³CPM (200 μl) of the antibodies were added in the coated tubes. The activity in each tube was counted in the gamma counter, then the tubes were washed three times with PBS-0.4% Tween-20 and the remaining activity counted. The difference between activities with and without the radiolabelled-antibody solutions indicated the percentage of bound-antibody. For evaluation of non specific binding to ferritin, a 100-fold excess of unconjugated antibody was added to the most concentrated radiolabelled-antibody solution. Non specific binding of the antibody was assessed on uncoated tubes. […] These binding percentages were calculated taking into account small differences in the labelling efficiencies of the three compounds on the day of the experiment.
(§2) ^aFerritin was immobilised at 5 μg/ml on tubes, then the indium or yttrium conjugated antibodies were incubated at three dilutions ([…]) Results are expressed as the mean of the percentage of bound antibody after washing the tubes. Non specific binding of the antibodies were less than 2%. ^bFive serial dilutions of fixed and permeabilized CAPAN-1 cells were incubated with the three radiolabelled compounds. After washing, the activity bound to the cells was counted in a gamma counter. Results were analysed using the GraphPad software; linear regression analysis of (Total CPM/Bound CPM) = f(cells dilution) were very accurate with r² > 0.99 for all three conjugates.

[4] = molecular target: T2, human liver ferritin (Calbiochem); assay: solid-phase radioimmunoassay, ferritin immobilised at 5 µg/ml on tubes, 111In-labelled conjugate
Method: as §1, §2

Binder	Kd [1] [nM]	immunoreactivity (immunoreactive fraction) [2] [%]	immunoreactivity (percentage of bound antibody) [3] [%]	immunoreactivity (percentage of bound antibody) [4] [%]
B1	5.1	–	–	–
B2	–	24	73.2	76.8
B3	–	52	100	87
B4	–	43	98.9	74.8

Source: patent US20090074657A1 (IMMUNE PHARMACEUTICALS, published 2009)
